Laboratory results reported in the Immune Epitope Database (IEDB).

Columns and labels:
HLA-B*53:01 = test: IEDB peptide-MHC binding, purified MHC/competitive/fluorescence; ≥ and ≤ were set here for values at or beyond the usual limits of such assays; conditions: source organism: Human immunodeficiency virus 1
HLA-B*39:01 = test: IEDB peptide-MHC binding, purified MHC/direct/fluorescence; filed as Kd, often an IC50 or EC50 that approximates it; ≥ and ≤ were set here for values at or beyond the usual limits of such assays
HLA-A*03:01 = test: as above
HLA-A*69:01 = test: as above
HLA-B*44:02 = test: as above; conditions: source organism: Influenza A virus (A/chicken/Thailand/LV1NF/2004(H5N1))
HLA-B*40:01 = test: as above
HLA-B*15:17 [1] = test: as above; conditions: source organism: Influenza A virus (A/chicken/Thailand/LV1NF/2004(H5N1))
HLA-A*02:01 = test: as above
HLA-B*15:01 = test: as above
HLA-A*11:01 [2] = test: as above; conditions: source organism: Influenza A virus (A/chicken/Thailand/LV1NF/2004(H5N1))
HLA-A*01:01 = test: as above
HLA-A*31:01 [3] = test: as above; conditions: source organism: Influenza A virus (A/chicken/Thailand/LV1NF/2004(H5N1))
HLA-B*27:05 = test: as above
HLA-B*18:01 = test: as above; conditions: source organism: Influenza A virus (A/chicken/Thailand/LV1NF/2004(H5N1))
HLA-B*57:01 = test: as above
HLA-B*48:01 = test: as above
HLA-B*58:01 [4] = test: as above
HLA-B*07:02 = test: as above
HLA-A*26:03 = test: IEDB peptide-MHC binding, purified MHC/competitive/fluorescence; filed as Kd, often an IC50 or EC50 that approximates it; ≥ and ≤ were set here for values at or beyond the usual limits of such assays; conditions: source organism: Influenza A virus
HLA-A*26:01 = test: IEDB peptide-MHC binding, purified MHC/direct/fluorescence; filed as Kd, often an IC50 or EC50 that approximates it; ≥ and ≤ were set here for values at or beyond the usual limits of such assays; conditions: source organism: Bacillus cereus H3081.97
HLA-B*15:09 = test: as above; conditions: source organism: Bacillus cereus H3081.97
HLA-B*08:02 = test: as above; conditions: source organism: Bacillus cereus H3081.97
HLA-A*26:02 = test: as above; conditions: source organism: Bacillus cereus H3081.97
HLA-B*51:01 = test: as above; conditions: source organism: Bacillus cereus H3081.97
HLA-B*38:01 = test: as above; conditions: source organism: Bacillus cereus H3081.97
HLA-B*15:17 [5] = test: IEDB peptide-MHC binding, purified MHC/competitive/fluorescence; filed as Kd, often an IC50 or EC50 that approximates it; ≥ and ≤ were set here for values at or beyond the usual limits of such assays; conditions: source organism: Bacillus thuringiensis serovar sotto str. T04001
HLA-B*08:01 = test: as above; conditions: source organism: Bacillus thuringiensis serovar sotto str. T04001
HLA-A*11:01 [6] = test: as above; conditions: source organism: Bacillus thuringiensis serovar sotto str. T04001
HLA-A*31:01 [7] = test: as above; conditions: source organism: Bacillus thuringiensis serovar sotto str. T04001
HLA-A*30:01 = test: as above; conditions: source organism: Bacillus thuringiensis serovar sotto str. T04001
HLA-B*58:01 [8] = test: IEDB peptide-MHC binding, cellular MHC/competitive/fluorescence; ≥ and ≤ were set here for values at or beyond the usual limits of such assays; conditions: source organism: Human herpesvirus 4 strain B95-8
[9] = source organism: Influenza A virus (A/chicken/Thailand/LV1NF/2004(H5N1))
[10] = source organism: Bacillus anthracis

For WPVKVIHT, the IC50 (HLA-B*53:01) was no less than 20 µM.
EMIWDPNGW showed a Kd (HLA-B*39:01; source organism: Influenza A virus (A/chicken/Hebei/706/2005(H5N1))) of no less than 20 µM, a Kd (HLA-A*03:01; [9]) of no less than 20 µM and a Kd (HLA-A*69:01; [9]) of no less than 20 µM. For the same sequence, the Kd (HLA-B*44:02) was no less than 20 µM, the Kd (HLA-B*40:01; [9]) was no less than 20 µM and the Kd (HLA-B*15:17 [1]) was no less than 20 µM. The Kd (HLA-A*02:01; [9]) was no less than 20 µM, the Kd (HLA-B*15:01; [9]) was no less than 20 µM and the Kd (HLA-A*11:01 [2]) was no less than 20 µM. The Kd (HLA-A*01:01; [9]) was no less than 20 µM, the Kd (HLA-A*31:01 [3]) was no less than 20 µM and the Kd (HLA-B*27:05; [9]) was no less than 20 µM. It also gave a Kd (HLA-B*18:01) of 2 µM, a Kd (HLA-B*57:01; [9]) of no less than 20 µM and a Kd (HLA-B*48:01; [9]) of no less than 20 µM. For the same sequence, the Kd (HLA-B*58:01 [4]; source organism: Influenza A virus (A/Puerto Rico/8/34/Mount Sinai(H1N1))) was 0.185 µM, the Kd (HLA-B*07:02; [9]) was no less than 20 µM and the Kd (HLA-A*26:03) was no less than 20 µM.
In the case of TVIRFWHAM, the Kd (HLA-B*39:01; source organism: Bacillus cereus H3081.97) is reported as 0.05 µM, the Kd (HLA-A*03:01; [10]) is reported as no less than 20 µM and the Kd (HLA-A*69:01; [10]) is reported as no more than 0.001 µM. It also gave a Kd (HLA-A*26:01) of 0.012 µM, a Kd (HLA-B*40:01; [10]) of no less than 20 µM and a Kd (HLA-A*02:01; [10]) of no less than 20 µM. For the same sequence, the Kd (HLA-B*15:01; [10]) was 0.0207 µM, the Kd (HLA-A*01:01; [10]) was no less than 20 µM and the Kd (HLA-B*15:09) was 6.04 µM. The Kd (HLA-B*27:05; [10]) was no less than 20 µM, the Kd (HLA-B*08:02) was no less than 20 µM and the Kd (HLA-A*26:02) was no more than 0.001 µM. It also gave a Kd (HLA-B*51:01) of no less than 20 µM, a Kd (HLA-B*57:01; [10]) of 0.593 µM and a Kd (HLA-B*38:01) of no less than 20 µM. It also gave a Kd (HLA-B*48:01; [10]) of no less than 20 µM, a Kd (HLA-B*58:01 [4]; [10]) of 0.074 µM and a Kd (HLA-B*07:02; [10]) of 1.81 µM. The Kd (HLA-B*15:17 [5]) was 0.293 µM, the Kd (HLA-B*08:01) was no less than 20 µM and the Kd (HLA-A*11:01 [6]) was 0.0979 µM. It also gave a Kd (HLA-A*31:01 [7]) of 0.0344 µM and a Kd (HLA-A*30:01) of 0.168 µM.
For ATLNICNFW, the IC50 (HLA-B*58:01 [8]) was 5 µM.
